Source: patent publication US9181310B2 (priority 2003, dated 2015)

Assays:
[1] = tested on: X. oryzae and X. oryzicola; format: in vivo; settings: transgenic rice, pIPG787
[2] = tested on: R. solanacearum strain Rsp446; format: in vivo, Ralstonia solanacearum; settings: seeded T1 tobacco, three experiments each, 60 days

B1: BombBC: Bacteriophage Outer Membrane Breaching protein of Xanthomonas phage P15 (Xp15) ORF BC, 17.9 kD, SEQ ID NO. 17 (protein, listed as Xanthomonas campestris)
chain: MSDQTDTTQTTPAEKAPPKEIIRGRMPIAVVALARFGSQSTTTTKAAADALGTTVGKIDDIRKNRNFAYVTADFKPTEAQKADGIEWLKRHPVGADALIEELQNLPVATAEESAAFEQVRASARGQNAKTAEGEVAQAGGGNRRKKKEKPAEAGEVQNPPAADGDSLLS
resistance to Gram-negative bacterial pathogens [1]: will be resistant
resistance conferred to transgenic tobacco [2]: strong resistance
